Test results: article PMC4094350
pKd: −log10 of the molar value. Like-named read-outs stand apart in the source and are kept apart here.

Assays:
GFP-Paxillin [1] = target: GFP-Paxillin (UniProt P49023); experiment: FRET or BRET
GFP-Paxillin [2] = target: GFP-Paxillin (UniProt P49023); experiment: FRET or BRET; remark: listed apart in the source
GFP-Paxillin [3] = target: GFP-Paxillin (UniProt P49023); experiment: FRET or BRET; remark: listed apart in the source
FAK FAT = FAK FAT (UniProt Q05397); experiment: ITC; conditions: cited from earlier work
UniProt Q05397, sequence (Q05397 914-1045): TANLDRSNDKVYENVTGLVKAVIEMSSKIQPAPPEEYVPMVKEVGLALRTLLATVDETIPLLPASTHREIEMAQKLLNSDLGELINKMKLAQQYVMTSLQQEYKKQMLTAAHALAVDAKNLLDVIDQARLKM

pKd (GFP-Paxillin [1]) | pKd (GFP-Paxillin [2]) | pKd (GFP-Paxillin [3]) | Substance | pKd (FAK FAT)
6.68 | 6.44 | 6.68 | FAT-mCherry (from UniProt P34152 1-1052) (domain or fragment) | –
– | – | – | paxillin LD peptide LD motif (from UniProt P49023) | 5.00
